{
  "source": "patent US6156511A",
  "about": "“Peptide library and screening method” (Affymax Technologies N.V., priority 1998, dated 2000)",
  "molecules": {"B1": {"name": "lacOs (symmetric lac operator) on plasmid or plasmid fragment (dsDNA)", "DNA 1": "AATTGTGAGCGCTCACAATT", "DNA 2": "AATTGTGAGCGCTCACAATT"}, "B2": {"name": "lac repressor: 37 kDa product of the E. coli lacI gene, binds lacO (protein, UniProt P03023 1-360, looked up)", "Lactose operon repressor": "MKPVTLYDVAEYAGVSYQTVSRVVNQASHVSAKTREKVEAAMAELNYIPNRVAQQLAGKQSLLIGVATSSLALHAPSQIVAAIKSRADQLGASVVVSMVERSGVEACKAAVHNLLAQRVSGLIINYPLDDQDAIAVEAACTNVPALFLDVSDQTPINSIIFSHEDGTRLGVEHLVALGHQQIALLAGPLSSVSARLRLAGWHKYLTRNQIQPIAEREGDWSAMSGFQQTMQMLNEGIVPTAMLVANDQMALGAMRAITESGLRVGADISVVGYDDTEDSSCYIPPLTTIKQDFRLLGQTSVDRLLQLSQGQAVKGNQLLPVSLVKRKTTLAPNTQTASPRALADSLMQLARQVSRLESGQ"}, "B3": {"name": "pMC5: library plasmid encoding lac repressor with only the linker peptide GADGA (protein, UniProt P03023 1-360, looked up)", "Lactose operon repressor": "B2 Lactose operon repressor", "modifications": "C-terminal GADGA linker peptide"}},
  "key": {"[1]": {"molecular_target": "Lac repressor (LacI)-peptide fusion, full length (Escherichia coli) (UniProt P03023)", "details": "plasmid panning on D32.39 antibody; deletion of lacOs, near background"}, "[2]": {"molecular_target": "headpiece dimer A4.5 (mutant) Q18R (second headpiece) (Escherichia coli) (UniProt P03023)", "details": "panning of protein-plasmid complex"}, "[3]": {"molecular_target": "headpiece dimer B4.5 (mutant) Q18R (second headpiece) (Escherichia coli) (UniProt P03023)", "details": "panning Exp. 3; lacOs plasmid complex stability, site of binding not established"}, "DNA": {"test_system": "DNA", "details": "cited from earlier work"}, "[4]": {"molecular_target": "Lac repressor (LacI)-peptide fusion, full length (Escherichia coli, UniProt P03023 P03023:1-360)", "experiment": "panning Exp. 3, partial (B) induction", "details": "chain copies: 4 (stated tetramer)"}, "[5]": {"test_system": "plasmid pCMG14 fragments / lacOs-containing fragments", "experiment": "Protein-DNA binding experiments with plasmid fragments (gel shift, 32P-labeled fragments)", "details": "over-expressed polypeptides; with unlabelled herring DNA competitor", "method": "To determine the plasmid binding site(s) of headpiece dimer mutant A4.5 and the non-mutant B7, several protein-DNA binding experiments were performed."}, "wild-type lacO": {"test_system": "wild-type lacO", "details": "single wild-type lacO; cited from earlier work"}, "lacZYA": {"test_system": "lacZYA", "experiment": "Repression of chromosomal lacZYA, direct β-galactosidase assay in strain ARI 20", "type": "cell-based, E. coli", "excerpt": "One can estimate the lacI expression level necessary to fill the available binding sites in a typical plasmid p.MC5 derivative by observing the behavior of strain ARI 20 (lacI^- lacZYA^+) transformed with pMC3 or pMC5 (encoding only the linker peptide GADGA [SEQ. ID NO.:65]). Because the lacO sites in plasmids pMC3 and pMC5 have higher affinity than those in the lacZYA operon, the available repressor should fill the plasmid sites first. Substantial repression of lacZYA should be observed only if there is an excess of repressor beyond the amount needed to fill the plasmid sites. As shown by color level on X-gal indicator plates and direct assays of β-galactosidase (see Miller, Experiments in Molecular Genetics (Cold Spring Harbor Laboratory, Cold Spring Harbor, N.Y. (1972)), incorporated herein by reference), the amount of repressor produced by pMC5 is sufficient to fill the lacO sites and repress greater than 200 fold lacZYA in ARI 20 host cells during growth in normal LB medium (2.4 units compared to 500 units from ARI 20 transformed with vector pBAD18, which has no lacI). The repressor encoded by pMC3 was partially inactivated by the addition of the dynorphin B tail, allowing about 10 fold higher expression of lacZYA (37 units). […]"}},
  "note": "Read-outs that look alike come from different tables or passages of the source.",
  "data": [
    {"molecule": "plasmid lacking lacOs", "values": [
      {"measurement": "binding signal (fold drop in enrichment)", "setting": "[1]", "result": 446},
      {"measurement": "binding signal (fold enrichment)", "setting": "[2]; lacOs not required", "result": 44}
    ]},
    {"molecule": "AATTGTGAGCGCTCACAATT (double strand)", "values": [
      {"measurement": "activity (fold enrichment)", "setting": "[3]", "result": 850},
      {"measurement": "binding signal (fold enrichment)", "setting": "[2]; plasmid with lacOs", "result": 43}
    ]},
    {"molecule": "arc repressor: arc repressor of phage P22 (MKGMSKMPQFNLRWPREVLDLVRKVAEENGRSVNSEIYQRVMESFKKEGRIGA; UniProt P03050 1-53, looked up)", "values": [
      {"measurement": "dissociation half-life", "setting": "DNA", "result": 80, "unit": "min"}
    ]},
    {"molecule": "B1", "values": [
      {"measurement": "activity", "setting": "[4]", "result": 155, "unit": "fold enrichment"}
    ]},
    {"molecule": "B2", "values": [
      {"measurement": "binding to 32P-labeled plasmid fragments", "setting": "[5]", "result": "specific binding of lacI to lacOs -containing fragments"},
      {"measurement": "association rate constant", "setting": "wild-type lacO", "result": "7e+09", "unit": "M⁻¹ s⁻¹"},
      {"measurement": "half-life for the lac repressor-lacO complex", "setting": "wild-type lacO", "result": "about 30 min"}
    ]},
    {"molecule": "B3", "values": [
      {"measurement": "repression of lacZYA", "setting": "lacZYA; ARI 20, LB medium, compared with vector pBAD18 (no lacI)", "result": "greater than 200 fold"},
      {"measurement": "β-galactosidase", "setting": "lacZYA; ARI 20 host cells, normal LB medium", "result": 2.4, "unit": "units"}
    ]}
  ]
}
